Experimental findings from patent publication US9976134B2, “Thermolysin variants” (Danisco US Inc., priority 2007, dated 2018) are described below.

First the molecules themselves.
B1: N280M: single-substitution thermolysin variant (SEQ ID NO:3 numbering) (protein, listed as Geobacillus caldoproteolyticus)
chain: ITGTSTVGVGRGVLGDQKNINTTYSTYYYLQDNTRGNGIFTYDAKYRTTLPGSLWADADNQFFASYDAPAVDAHYYAGVTYDYYKNVHNRLSYDGNNAAIRSSVHYSQGYNNAFWNGSQMVYGDGDGQTFIPLSGGIDVVAHELTHAVTDYTAGLIYQNESGAINEAISDIFGTLVEFYANKNPDWEIGEDVYTPGISGDSLRSMSDPAKYGDPDHYSKRYTGTQDNGGVHINSGIINKAAYLISQGGTHYGVSVVGIGRDKLGKIFYRALTQYLTPTSMFSQLRAAAVQSATDLYGSTSQEVASVKQAFDAVGVK
B2: T006A: single-substitution thermolysin variant (SEQ ID NO:3 numbering) (protein, listed as Geobacillus caldoproteolyticus)
chain: ITGTSAVGVGRGVLGDQKNINTTYSTYYYLQDNTRGNGIFTYDAKYRTTLPGSLWADADNQFFASYDAPAVDAHYYAGVTYDYYKNVHNRLSYDGNNAAIRSSVHYSQGYNNAFWNGSQMVYGDGDGQTFIPLSGGIDVVAHELTHAVTDYTAGLIYQNESGAINEAISDIFGTLVEFYANKNPDWEIGEDVYTPGISGDSLRSMSDPAKYGDPDHYSKRYTGTQDNGGVHINSGIINKAAYLISQGGTHYGVSVVGIGRDKLGKIFYRALTQYLTPTSNFSQLRAAAVQSATDLYGSTSQEVASVKQAFDAVGVK
B3: N280S: single-substitution thermolysin variant (SEQ ID NO:3 numbering) (protein, listed as Geobacillus caldoproteolyticus)
chain: ITGTSTVGVGRGVLGDQKNINTTYSTYYYLQDNTRGNGIFTYDAKYRTTLPGSLWADADNQFFASYDAPAVDAHYYAGVTYDYYKNVHNRLSYDGNNAAIRSSVHYSQGYNNAFWNGSQMVYGDGDGQTFIPLSGGIDVVAHELTHAVTDYTAGLIYQNESGAINEAISDIFGTLVEFYANKNPDWEIGEDVYTPGISGDSLRSMSDPAKYGDPDHYSKRYTGTQDNGGVHINSGIINKAAYLISQGGTHYGVSVVGIGRDKLGKIFYRALTQYLTPTSSFSQLRAAAVQSATDLYGSTSQEVASVKQAFDAVGVK
B4: S065D: single-substitution thermolysin variant (SEQ ID NO:3 numbering) (protein, listed as Geobacillus caldoproteolyticus)
chain: ITGTSTVGVGRGVLGDQKNINTTYSTYYYLQDNTRGNGIFTYDAKYRTTLPGSLWADADNQFFADYDAPAVDAHYYAGVTYDYYKNVHNRLSYDGNNAAIRSSVHYSQGYNNAFWNGSQMVYGDGDGQTFIPLSGGIDVVAHELTHAVTDYTAGLIYQNESGAINEAISDIFGTLVEFYANKNPDWEIGEDVYTPGISGDSLRSMSDPAKYGDPDHYSKRYTGTQDNGGVHINSGIINKAAYLISQGGTHYGVSVVGIGRDKLGKIFYRALTQYLTPTSNFSQLRAAAVQSATDLYGSTSQEVASVKQAFDAVGVK
B5: A058C: single-substitution thermolysin variant (SEQ ID NO:3 numbering) (protein, listed as Geobacillus caldoproteolyticus)
chain: ITGTSTVGVGRGVLGDQKNINTTYSTYYYLQDNTRGNGIFTYDAKYRTTLPGSLWADCDNQFFASYDAPAVDAHYYAGVTYDYYKNVHNRLSYDGNNAAIRSSVHYSQGYNNAFWNGSQMVYGDGDGQTFIPLSGGIDVVAHELTHAVTDYTAGLIYQNESGAINEAISDIFGTLVEFYANKNPDWEIGEDVYTPGISGDSLRSMSDPAKYGDPDHYSKRYTGTQDNGGVHINSGIINKAAYLISQGGTHYGVSVVGIGRDKLGKIFYRALTQYLTPTSNFSQLRAAAVQSATDLYGSTSQEVASVKQAFDAVGVK
B6: A058E: single-substitution thermolysin variant (SEQ ID NO:3 numbering) (protein, listed as Geobacillus caldoproteolyticus)
chain: ITGTSTVGVGRGVLGDQKNINTTYSTYYYLQDNTRGNGIFTYDAKYRTTLPGSLWADEDNQFFASYDAPAVDAHYYAGVTYDYYKNVHNRLSYDGNNAAIRSSVHYSQGYNNAFWNGSQMVYGDGDGQTFIPLSGGIDVVAHELTHAVTDYTAGLIYQNESGAINEAISDIFGTLVEFYANKNPDWEIGEDVYTPGISGDSLRSMSDPAKYGDPDHYSKRYTGTQDNGGVHINSGIINKAAYLISQGGTHYGVSVVGIGRDKLGKIFYRALTQYLTPTSNFSQLRAAAVQSATDLYGSTSQEVASVKQAFDAVGVK
B7: A056E: single-substitution thermolysin variant (SEQ ID NO:3 numbering) (protein, listed as Geobacillus caldoproteolyticus)
chain: ITGTSTVGVGRGVLGDQKNINTTYSTYYYLQDNTRGNGIFTYDAKYRTTLPGSLWEDADNQFFASYDAPAVDAHYYAGVTYDYYKNVHNRLSYDGNNAAIRSSVHYSQGYNNAFWNGSQMVYGDGDGQTFIPLSGGIDVVAHELTHAVTDYTAGLIYQNESGAINEAISDIFGTLVEFYANKNPDWEIGEDVYTPGISGDSLRSMSDPAKYGDPDHYSKRYTGTQDNGGVHINSGIINKAAYLISQGGTHYGVSVVGIGRDKLGKIFYRALTQYLTPTSNFSQLRAAAVQSATDLYGSTSQEVASVKQAFDAVGVK
B8: S065P: single-substitution thermolysin variant (SEQ ID NO:3 numbering) (protein, listed as Geobacillus caldoproteolyticus)
chain: ITGTSTVGVGRGVLGDQKNINTTYSTYYYLQDNTRGNGIFTYDAKYRTTLPGSLWADADNQFFAPYDAPAVDAHYYAGVTYDYYKNVHNRLSYDGNNAAIRSSVHYSQGYNNAFWNGSQMVYGDGDGQTFIPLSGGIDVVAHELTHAVTDYTAGLIYQNESGAINEAISDIFGTLVEFYANKNPDWEIGEDVYTPGISGDSLRSMSDPAKYGDPDHYSKRYTGTQDNGGVHINSGIINKAAYLISQGGTHYGVSVVGIGRDKLGKIFYRALTQYLTPTSNFSQLRAAAVQSATDLYGSTSQEVASVKQAFDAVGVK
B9: Q061E: single-substitution thermolysin variant (SEQ ID NO:3 numbering) (protein, listed as Geobacillus caldoproteolyticus)
chain: ITGTSTVGVGRGVLGDQKNINTTYSTYYYLQDNTRGNGIFTYDAKYRTTLPGSLWADADNEFFASYDAPAVDAHYYAGVTYDYYKNVHNRLSYDGNNAAIRSSVHYSQGYNNAFWNGSQMVYGDGDGQTFIPLSGGIDVVAHELTHAVTDYTAGLIYQNESGAINEAISDIFGTLVEFYANKNPDWEIGEDVYTPGISGDSLRSMSDPAKYGDPDHYSKRYTGTQDNGGVHINSGIINKAAYLISQGGTHYGVSVVGIGRDKLGKIFYRALTQYLTPTSNFSQLRAAAVQSATDLYGSTSQEVASVKQAFDAVGVK
B10: Q061M: single-substitution thermolysin variant (SEQ ID NO:3 numbering) (protein, listed as Geobacillus caldoproteolyticus)
chain: ITGTSTVGVGRGVLGDQKNINTTYSTYYYLQDNTRGNGIFTYDAKYRTTLPGSLWADADNMFFASYDAPAVDAHYYAGVTYDYYKNVHNRLSYDGNNAAIRSSVHYSQGYNNAFWNGSQMVYGDGDGQTFIPLSGGIDVVAHELTHAVTDYTAGLIYQNESGAINEAISDIFGTLVEFYANKNPDWEIGEDVYTPGISGDSLRSMSDPAKYGDPDHYSKRYTGTQDNGGVHINSGIINKAAYLISQGGTHYGVSVVGIGRDKLGKIFYRALTQYLTPTSNFSQLRAAAVQSATDLYGSTSQEVASVKQAFDAVGVK

A short description of the first data set: Stability assay in 25% TIDE 2X detergent with DTPA (residual Abz-AGLA-Nba protease activity). Particulars: 60 min at 32°C; variant residual AGLA activity divided by wild-type residual activity. In kind it is physicochemical. How it is done: (§1) The stability of thermolysin and variants thereof was measured after incubation under defined conditions in the presence of 25% TIDE® 2× detergent. The initial and residual activity was determined.
(§2) MTPs were obtained from Costar (type 9017) and from Greiner (black plate, type 655076). Test Method Unstressed Conditions:
(§3) First, 20 μl thermolysin containing culture supernatant was diluted with 180 μl MES assay buffer. Then, 20 μl diluted supernatant was diluted further with 180 μl MES assay buffer. Subsequently 10 μl of this dilution was transferred into 190 μl AGLA-substrate solution in a pre-warmed plate (Greiner 655076) at 25° C. Any air bubbles present were blown away and the plate was measured according to the AGLA protease assay protocol described below.
(§4) First, 20 μl of culture supernatant was diluted with 180 μl 27.5% TIDE®+detergent solution and placed in the iEMS shaker. The plate covered with a plate seal was incubated for a total of 60 minutes at 32° C. at 900 rpm. In addition, 20 μl of culture supernatant was diluted with 180 μl 27.5% TIDE®−solution and placed in the iEMS shaker. This plate covered with a plate seal was incubated for a total of 180 minutes at 50° C. at 900 rpm.
(§5) Subsequently after the respective incubations, 20 μl of either of these solutions were diluted with 180 μl MES assay buffer and 10 μl of this dilution were diluted with 190 μl AGLA-substrate solution in a pre-warmed plate (Greiner 655076) at 25° C.
(§6) Fluorescence measurements were taken at excitation of 350 nm and emission of 420 nm. The spectrofluorometer software calculated the reaction rates (=slope) of the increase in fluorescence for each well to a linearly regressed line of (milli-) RFU/min. The ratio of the residual and initial AGLA activity was used to express the 25% TIDE® 2× stability as follows: Percentage of residual activity=[slope of stressed]*100/[slope of unstressed]
(§7) For each sample (thermolysin and variants thereof) the performance index was calculated by dividing the residual activity of the variant by the residual activity of thermolysin. The performance index compared the stability of the variant and the standard thermolysin enzyme (e.g., wild type or parental enzyme), determined under the same conditions.
(§8) In these experiments, the liberation of Abz-AG by protease cleavage of Abz-AGLA-Nba was monitored by fluorescence spectrometry (Ex. 350/Em. 420). The rate of appearance of Abz-AG was a measure of proteolytic activity.
(§9) The Abz-AGLA-Nba assay solution was prepared by adding 1 ml of the Abz-AGLA-Nba stock to 19 ml MES substrate buffer and mixed well for at least 2 minutes. Subsequently the thermolysin or variants thereof containing culture supernatants were diluted with MES assay buffer to a concentration of 1-6 μg protein per ml.
(§10) The assay was performed by adding 10 μl of diluted protease solution to each well, followed by the addition of 190 μl Abz-AGLA-Nba assay solution that was pre-equilibrated for at least 15 minutes at 25° C. The solutions were vigorously mixed, and the liberation of Abz-AG by protease cleavage of Abz-AGLA-Nba was monitored by fluorescence spectrometry at 25° C. in kinetic mode with excitation set at 350 nm and emission set at 420 nm. The rate of appearance of Abz-AG was a measure of proteolytic activity in the samples. The protease activity was expressed as RFU (relative fluorescence units·min^−1).
(§11) As described in Example 1, the stability of thermolysin variants was measured by determining the AGLA activity before and after incubation in the presence of TIDE® 2× heavy duty liquid (HDL) detergent at an elevated temperature. The tables contain the relative stability values compared to wild-type thermolysin, which is the quotient of the variant residual activity divided by the wild-type residual activity. A value greater than one indicates higher stability in the presence of detergent. […]
For the molecule B1, the “PI (relative stability), 25% TIDE 2X with DTPA” value was found to be 1.16.

In the case of B2, the “PI (relative stability), 25% TIDE 2X with DTPA” value came out at 1.01.

Regarding B3, the “PI (relative stability), 25% TIDE 2X with DTPA” value stood at 1.19.

The next data set in a line: Stability assay in 25% TIDE 2X detergent without DTPA (residual Abz-AGLA-Nba protease activity). Particulars: 180 min at 50°C; variant residual AGLA activity divided by wild-type residual activity. In kind it is physicochemical. How it is done: as §1, §2, §3, §4, §5, §6, §7, §8, §9, §10, §11
With B4, the “PI (relative stability), 25% TIDE 2X without DTPA” value is on record as 1.20.

Regarding B5, the “PI (relative stability), 25% TIDE 2X without DTPA” value was determined as 1.01.

Turning to B6, the “PI (relative stability), 25% TIDE 2X without DTPA” value is on record as 1.24.

With B7, the “PI (relative stability), 25% TIDE 2X without DTPA” value was found to be 1.07.

Consider B8, for which the “PI (relative stability), 25% TIDE 2X without DTPA” value stood at 1.18.

B9: the “PI (relative stability), 25% TIDE 2X without DTPA” value was found to be 1.05.

As to B10, the “PI (relative stability), 25% TIDE 2X without DTPA” value is recorded as 1.01.
